{"source": "the Human Domainome abundance scans (Beltran et al. 2025)", "parents": {"B1": {"name": "Ankyrin repeat and SAM domain-containing protein 6, residues 774 to 836; numbered along this chain, Q68DC2 (parent)", "chain": "DEDELTGILKKLSLEKYQPIFEEQEVDMEAFLTLTDGDLKELGIKTDGSRQQILAAISELNAG"}}, "note": "± gives the uncertainty stated by the source.", "data": [{"variants_of": "B1", "test": "abundance fitness (aPCA) (normalised: wild type 0, dead -1); higher = more abundant; growth selection in yeast, the domain comes from the species named", "settings": "Homo sapiens", "values": [{"variant": "DEDELTGILKKQSLEKYQPIFEEQEVDMEAFLTLTDGDLKELGIKTDGSRQQILAAISELNAG", "note": "[L12Q]", "abundance fitness": "-0.567 ± 0.095"}, {"variant": "DEDELTGILKKGSLEKYQPIFEEQEVDMEAFLTLTDGDLKELGIKTDGSRQQILAAISELNAG", "note": "[L12G]", "abundance fitness": "-0.927 ± 0.078"}, {"variant": "DEDELTGILKKNSLEKYQPIFEEQEVDMEAFLTLTDGDLKELGIKTDGSRQQILAAISELNAG", "note": "[L12N]", "abundance fitness": "-0.402 ± 0.29"}, {"variant": "DEDELTGILKKSSLEKYQPIFEEQEVDMEAFLTLTDGDLKELGIKTDGSRQQILAAISELNAG", "note": "[L12S]", "abundance fitness": "-0.531 ± 0.057"}, {"variant": "DEDELTGILKKTSLEKYQPIFEEQEVDMEAFLTLTDGDLKELGIKTDGSRQQILAAISELNAG", "note": "[L12T]", "abundance fitness": "-0.35 ± 0.083"}, {"variant": "DEDELTGILKKRSLEKYQPIFEEQEVDMEAFLTLTDGDLKELGIKTDGSRQQILAAISELNAG", "note": "[L12R]", "abundance fitness": "-0.538 ± 0.043"}, {"variant": "DEDELTGILKKISLEKYQPIFEEQEVDMEAFLTLTDGDLKELGIKTDGSRQQILAAISELNAG", "note": "[L12I]", "abundance fitness": "0.254 ± 0.29"}, {"variant": "DEDELTGILKKFSLEKYQPIFEEQEVDMEAFLTLTDGDLKELGIKTDGSRQQILAAISELNAG", "note": "[L12F]", "abundance fitness": "0.005 ± 0.11"}, {"variant": "DEDELTGILKKESLEKYQPIFEEQEVDMEAFLTLTDGDLKELGIKTDGSRQQILAAISELNAG", "note": "[L12E]", "abundance fitness": "-0.949 ± 0.18"}, {"variant": "DEDELTGILKKCSLEKYQPIFEEQEVDMEAFLTLTDGDLKELGIKTDGSRQQILAAISELNAG", "note": "[L12C]", "abundance fitness": "-0.023 ± 0.077"}, {"variant": "DEDELTGILKKVSLEKYQPIFEEQEVDMEAFLTLTDGDLKELGIKTDGSRQQILAAISELNAG", "note": "[L12V]", "abundance fitness": "-0.369 ± 0.054"}, {"variant": "DEDELTGILKKYSLEKYQPIFEEQEVDMEAFLTLTDGDLKELGIKTDGSRQQILAAISELNAG", "note": "[L12Y]", "abundance fitness": "0.09 ± 0.45"}, {"variant": "DEDELTGILKKHSLEKYQPIFEEQEVDMEAFLTLTDGDLKELGIKTDGSRQQILAAISELNAG", "note": "[L12H]", "abundance fitness": "0.171 ± 0.09"}, {"variant": "DEDELTGILKKMSLEKYQPIFEEQEVDMEAFLTLTDGDLKELGIKTDGSRQQILAAISELNAG", "note": "[L12M]", "abundance fitness": "0.038 ± 0.064"}, {"variant": "DEDELTGILKKKSLEKYQPIFEEQEVDMEAFLTLTDGDLKELGIKTDGSRQQILAAISELNAG", "note": "[L12K]", "abundance fitness": "-0.256 ± 0.09"}, {"variant": "DEDELTGILKKDSLEKYQPIFEEQEVDMEAFLTLTDGDLKELGIKTDGSRQQILAAISELNAG", "note": "[L12D]", "abundance fitness": "-1.08 ± 0.21"}, {"variant": "DEDELTGILKKPSLEKYQPIFEEQEVDMEAFLTLTDGDLKELGIKTDGSRQQILAAISELNAG", "note": "[L12P]", "abundance fitness": "-1.16 ± 0.16"}, {"variant": "DEDELTGILKKASLEKYQPIFEEQEVDMEAFLTLTDGDLKELGIKTDGSRQQILAAISELNAG", "note": "[L12A]", "abundance fitness": "-0.439 ± 0.082"}, {"variant": "DEDELTGILKKWSLEKYQPIFEEQEVDMEAFLTLTDGDLKELGIKTDGSRQQILAAISELNAG", "note": "[L12W]", "abundance fitness": "-0.061 ± 0.054"}, {"variant": "DEDELTGILKNLSLEKYQPIFEEQEVDMEAFLTLTDGDLKELGIKTDGSRQQILAAISELNAG", "note": "[K11N]", "abundance fitness": "-0.254 ± 0.1"}, {"variant": "DEDELTGILKQLSLEKYQPIFEEQEVDMEAFLTLTDGDLKELGIKTDGSRQQILAAISELNAG", "note": "[K11Q]", "abundance fitness": "-0.099 ± 0.13"}, {"variant": "DEDELTGILKRLSLEKYQPIFEEQEVDMEAFLTLTDGDLKELGIKTDGSRQQILAAISELNAG", "note": "[K11R]", "abundance fitness": "-0.071 ± 0.053"}, {"variant": "DEDELTGILKMLSLEKYQPIFEEQEVDMEAFLTLTDGDLKELGIKTDGSRQQILAAISELNAG", "note": "[K11M]", "abundance fitness": "-0.195 ± 0.11"}, {"variant": "DEDELTGILKLLSLEKYQPIFEEQEVDMEAFLTLTDGDLKELGIKTDGSRQQILAAISELNAG", "note": "[K11L]", "abundance fitness": "-0.363 ± 0.044"}, {"variant": "DEDELTGILKHLSLEKYQPIFEEQEVDMEAFLTLTDGDLKELGIKTDGSRQQILAAISELNAG", "note": "[K11H]", "abundance fitness": "-0.621 ± 0.2"}, {"variant": "DEDELTGILKELSLEKYQPIFEEQEVDMEAFLTLTDGDLKELGIKTDGSRQQILAAISELNAG", "note": "[K11E]", "abundance fitness": "-0.391 ± 0.12"}, {"variant": "DEDELTGILKGLSLEKYQPIFEEQEVDMEAFLTLTDGDLKELGIKTDGSRQQILAAISELNAG", "note": "[K11G]", "abundance fitness": "-0.224 ± 0.064"}, {"variant": "DEDELTGILKYLSLEKYQPIFEEQEVDMEAFLTLTDGDLKELGIKTDGSRQQILAAISELNAG", "note": "[K11Y]", "abundance fitness": "-0.553 ± 0.087"}, {"variant": "DEDELTGILKSLSLEKYQPIFEEQEVDMEAFLTLTDGDLKELGIKTDGSRQQILAAISELNAG", "note": "[K11S]", "abundance fitness": "-0.305 ± 0.058"}, {"variant": "DEDELTGILKTLSLEKYQPIFEEQEVDMEAFLTLTDGDLKELGIKTDGSRQQILAAISELNAG", "note": "[K11T]", "abundance fitness": "-0.428 ± 0.078"}, {"variant": "DEDELTGILKDLSLEKYQPIFEEQEVDMEAFLTLTDGDLKELGIKTDGSRQQILAAISELNAG", "note": "[K11D]", "abundance fitness": "-0.166 ± 0.079"}, {"variant": "DEDELTGILKPLSLEKYQPIFEEQEVDMEAFLTLTDGDLKELGIKTDGSRQQILAAISELNAG", "note": "[K11P]", "abundance fitness": "-0.689 ± 0.061"}, {"variant": "DEDELTGILKALSLEKYQPIFEEQEVDMEAFLTLTDGDLKELGIKTDGSRQQILAAISELNAG", "note": "[K11A]", "abundance fitness": "-0.15 ± 0.06"}, {"variant": "DEDELTGILVKLSLEKYQPIFEEQEVDMEAFLTLTDGDLKELGIKTDGSRQQILAAISELNAG", "note": "[K10V]", "abundance fitness": "-0.595 ± 0.049"}, {"variant": "DEDELTGILWKLSLEKYQPIFEEQEVDMEAFLTLTDGDLKELGIKTDGSRQQILAAISELNAG", "note": "[K10W]", "abundance fitness": "-0.831 ± 0.066"}, {"variant": "DEDELTGILTKLSLEKYQPIFEEQEVDMEAFLTLTDGDLKELGIKTDGSRQQILAAISELNAG", "note": "[K10T]", "abundance fitness": "-0.049 ± 0.11"}, {"variant": "DEDELTGILKKLDLEKYQPIFEEQEVDMEAFLTLTDGDLKELGIKTDGSRQQILAAISELNAG", "note": "[S13D]", "abundance fitness": "0.131 ± 0.073"}, {"variant": "DEDELTGILKKLILEKYQPIFEEQEVDMEAFLTLTDGDLKELGIKTDGSRQQILAAISELNAG", "note": "[S13I]", "abundance fitness": "-0.202 ± 0.21"}, {"variant": "DEDELTGILKKLELEKYQPIFEEQEVDMEAFLTLTDGDLKELGIKTDGSRQQILAAISELNAG", "note": "[S13E]", "abundance fitness": "-0.002 ± 0.049"}, {"variant": "DEDELTGILKKLHLEKYQPIFEEQEVDMEAFLTLTDGDLKELGIKTDGSRQQILAAISELNAG", "note": "[S13H]", "abundance fitness": "0.075 ± 0.08"}, {"variant": "DEDELTGILKKLLLEKYQPIFEEQEVDMEAFLTLTDGDLKELGIKTDGSRQQILAAISELNAG", "note": "[S13L]", "abundance fitness": "-0.497 ± 0.056"}, {"variant": "DEDELTGILKKLALEKYQPIFEEQEVDMEAFLTLTDGDLKELGIKTDGSRQQILAAISELNAG", "note": "[S13A]", "abundance fitness": "-0.067 ± 0.058"}, {"variant": "DEDELTGILKKLFLEKYQPIFEEQEVDMEAFLTLTDGDLKELGIKTDGSRQQILAAISELNAG", "note": "[S13F]", "abundance fitness": "-0.62 ± 0.14"}]}]}
